In publication PMC8928829 (mAbs, 2022):

Experiments:
Assay in all cases: BLI
Conditions in all cases: both partners purified
[1] = biological target: T1, recombinant SARS-CoV-2 RBD, Alpha (B.1.1.7), N501Y (SARS-CoV-2, Alpha (B.1.1.7) RBD N501Y, N501Y)
T1 construct: also called RBD_(N501Y); source: bought: ACRO Biosystems

[2] = biological target: T2, recombinant SARS-CoV-2 RBD, Beta (B.1.351), K417N, E484K, N501Y (SARS-CoV-2, Beta (B.1.351), K417N | E484K | N501Y)
T2 construct: source: bought: ACRO Biosystems

[3] = biological target: T3, recombinant SARS-CoV-2 RBD, Gamma (P.1), K417T, E484K, N501Y (SARS-CoV-2, Gamma (P.1), K417T | E484K | N501Y)
T3 construct: source: bought: ACRO Biosystems

[4] = biological target: T4, recombinant SARS-CoV-2 RBD, Delta (B.1.617.2), L452R, T478K (SARS-CoV-2, Delta (B.1.617.2), L452R | T478K)
T4 construct: also called Delta variant RBD; source: bought: ACRO Biosystems

[5] = biological target: T5, SARS-CoV-2 RBD Alpha (B.1.1.7) N501Y (SARS-CoV-2, Alpha (B.1.1.7) RBD N501Y, N501Y)
T5 construct: also called RBD N501Y; source: bought: ACRO Biosystems

[6] = biological target: T6, SARS-CoV-2 RBD Beta (B.1.351) (SARS-CoV-2, Beta (B.1.351), K417N | E484K | N501Y)
T6 construct: also called B.1.351/K417N, E484K, N501Y; source: bought: ACRO Biosystems

[7] = biological target: T7, SARS-CoV-2 RBD Gamma (P.1) (SARS-CoV-2, Gamma (P.1), K417T | E484K | N501Y)
T7 construct: also called P.1/K417T, E484K, N501Y; source: bought: ACRO Biosystems

[8] = biological target: T8, SARS-CoV-2 RBD Delta (B.1.617.2) (SARS-CoV-2, Delta (B.1.617.2), L452R | T478K)
T8 construct: also called B.1.617.2/L452R, T478K; source: bought: ACRO Biosystems

B1: NIH-CoVnb-112 (VHH)
VHH: DVQLQESGGGLVQPGGSLRLSCAASGLTLDYYAIGWFRQAPGKEREGVSCISSSDGSTYYADSVKGRFTTSRDNAKNTVYLQMNSLKPEDTAVYYCAAVPSTYYSGTYYYTCHPGGMDYWGKGTQVTVSS
Kd [1]: 3 nM | Kd [2]: 4.28 nM | Kd [3]: 4.16 nM | Kd [4]: 1.66 nM | kon [4]: 461000 M⁻¹ s⁻¹

B2: NIH-CoVnb-112 (VHH)
VHH: DVQLQESGGGLVQPGGSLRLSCAASGLTLDYYAIGWFRQAPGKEREGVSCISSSDGSTYYADSVKGRFTTSRDNAKNTVYLQMNSLKPEDTAVYYCAAVPSTYYSGTYYYTCHPGGMDYWGKGTQVTVSS
koff [5]: 0.000428 s⁻¹ | kon [5]: 153000 M⁻¹ s⁻¹ | koff [6]: 0.000705 s⁻¹ | kon [6]: 201000 M⁻¹ s⁻¹ | koff [7]: 0.000822 s⁻¹ | kon [7]: 214000 M⁻¹ s⁻¹ | koff [8]: 0.000609 s⁻¹
